Reference: US11760795B2, “Monoclonal antibodies to growth and differentiation factor 15 (GDF-15), and uses thereof for treating cancer cachexia and cancer” (JULIUS-MAXIMILIANS-UNIVERSITÄT WÜRZBURG, priority 2014, dated 2023)

Columns and labels:
[1] = target: T1, human GDF-15 precursor on human cells (Homo sapiens, UniProt Q99988); test: Staining experiments on human cells; format: cell-based
T1 construct: endogenous in cells
T1 sequence (Q99988 30-308 limits assumed): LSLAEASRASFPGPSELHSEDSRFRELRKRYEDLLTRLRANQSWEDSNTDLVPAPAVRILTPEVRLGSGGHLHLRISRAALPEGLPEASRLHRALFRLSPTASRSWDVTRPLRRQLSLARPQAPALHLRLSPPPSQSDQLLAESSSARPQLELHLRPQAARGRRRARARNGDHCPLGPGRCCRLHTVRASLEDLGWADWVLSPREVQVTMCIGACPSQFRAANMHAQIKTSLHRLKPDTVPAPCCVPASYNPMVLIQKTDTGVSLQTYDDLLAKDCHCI

[2] = target: T2, recombinant mature human GDF-15 protein (Homo sapiens, UniProt Q99988); test: Surface plasmon resonance binding to immobilized recombinant mature human GDF-15 (insect cell derived); details: GDF-15 derived from insect cell expression; 25° C.; 1:1 Langmuir-type interaction
T2 construct: made in house; host or cells: Baculovirus-transfected HighFive insect cells
T2 sequence (Q99988 with tags, fused parts or gaps): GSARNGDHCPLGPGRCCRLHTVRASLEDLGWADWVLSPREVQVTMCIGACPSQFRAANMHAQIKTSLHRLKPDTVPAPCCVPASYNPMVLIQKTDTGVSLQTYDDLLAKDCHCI
Procedure: Binding of monoclonal anti-human-GDF-15 antibodies according to the invention is generally assessed by employing surface plasmon resonance measurements using a Bio-Rad® ProteOn™ XPR36 system and Bio-Rad® GLC sensor chips as described for murine anti-human GDF-15 mAb-B1-23 in Example 1.
Binding of the monoclonal anti-human-GDF-15 antibody anti-human GDF-15 mAb-B1-23 was measured by employing surface plasmon resonance measurements using a Bio-Rad® ProteOn™ XPR36 system and Bio-Rad® GLC sensor chips:
For preparing the biosensors recombinant mature human GDF-15 protein was immobilized on flow cells 1 and 2. On one flow cell recombinant GDF-15 derived from Baculvirus-transfected insect cells (HighFive insect cells) and on the other recombinant protein derived from expression in E. coli was used. […] The resulting sensogram was analyzed using the software ProteOn Manager version 3.0. […] For the association rate constant a value of 5.4±0.06×10^5 M^−1s^−1 (kon) and for the dissociation rate constant a value of 4.3±0.03×10^−4 s^−1 (koff) could be determined (values are for the interaction of anti-human GDF-15 mAb-B1-23 with GDF-15 derived from insect cell expression).

[3] = test system: melanoma cell line UACC-257; test: UACC-257 melanoma xenograft tumor growth in nude mice; format: in vivo, Balb/c^nu/nu nude mice; details: 25 mg/kg i.p. twice a week; 48 days; p<0.05
Procedure: FIG. 4: An anti-tumor effect of murine B1-23 in vivo. Balb/c^nu/nu nude mice were used in a xenograft setting with the melanoma cell line UACC-257. […] Significance was defined as p<0.05 as assessed by Wilcoxon's log-rank test.
To assess an anti-tumor effect of B1-23 in viva, Balb/c^nu/nu nude mice were used in a xenograft setting with the melanoma cell line UACC-257. The mice were treated either with the antibody B1-23 or with PBS. Each treatment cohort contained 10 Balb/c^nu/nu nude mice.
Prior to injection, the UACC-257 melanoma cells were grown in complete medium, excluding any contamination. […] Cells were then washed with PBS and counted. 1×10^7 viable cells were suspended in PBS.
The first injection/treatment was administered in 6 week old Balb/c^nu/nu nude mice. The inoculation area of the mice was cleaned with ethanol. The UACC 257 cells were mixed and drawn into a syringe without a needle, in order to avoid negative pressure on the tumor cells. […]
The intraperitoneal (i.p.) injection of either B1-23 (25 mg/kg body weight) or the same volume of PBS started immediately after the tumor cell inoculation (defined as day 1) and was administered twice a week. […] The tumor diameters were measured with a caliper and the tumor volume in mm^3 was calculated by the formula: Volume=(width)^2×length/2

[4] = test system: GDF-15 mediated JNK1/2-phosphorylation in immune cells; test: JNK1/2 phosphorylation in immune cells (Western Blot); format: cell-based; details: 2 μg antibody, 10 ng/ml GDF-15, 5 minute preincubation
Procedure: FIG. 3: JNK1/2 Phosphorylation in Immune Cells. In order to quantify the Western Blot, the ratio of phosphorylated JNK1/2 to the total amount of JNK was calculated and normalized to the untreated control.
c) Treatment of immune cells with recombinant. GDF-15 led to the phosphorylation of JNK, a kinase, which is activated either by cytokines or by stress. Antagonization of 10 ng/ml GDF-15 with 2 μg mAb-B1-23 (5 minute preincubation at 37°) blocked the GDF-15 mediated JNK1/2-phosphorylation (FIG. 3).

B1: mAb-B1-23: murine IgG2a (kappa) monoclonal anti-human GDF-15 antibody produced by hybridoma cell line B1-23, DSM ACC3142 (antibody, V domains shown)
VH: QVKLQQSGPGILQSSQTLSLTCSFSGFSLSTSGMGVSWIRQPSGKGLEWLAHIYWDDDKRYNPTLKSRLTISKDPSRNQVFLKITSVDTADTATYYCARSSYGAMDYWGQGTSVTVSS
VL: DIVLTQSPKFMSTSVGDRVSVTCKASQNVGTNVAWFLQKPGQSPKALIYSASYRYSGVPDRFTGSGSGTDFTLTISNVQSEDLAEYFCQQYNNFPYTFGGGTKLEIKRTVA
[1]
  binding to the human GDF-15 precursor on human cells: capable of binding
[2]
  association rate constant (kon): 5.4±0.06×10^5 M^−1s^−1
  dissociation rate constant (koff): 4.3±0.03×10^−4 s^−1
[3]
  tumor size compared to the PBS control group: significantly decreased
[4]
  GDF-15 mediated JNK1/2-phosphorylation: blocked
